# Test results as given in PMC9482655 (2022).
# How the values were obtained:
# [1] = target: JUNO ectodomain, biotin-labelled, sensor-bound (UniProt A6ND01 20-228, biotin on free lysine residues (EZ link sulfo-NHS-LC-biotinylation kit, 1:1 protein to biotin ratio)); experiment: BLI
# [2] = target: IZUMO1 ectodomain, biotin-labelled, sensor-bound (human, UniProt Q8IYV9 22-292, biotin on free lysine residues (EZ link sulfo-NHS-LC-biotinylation kit, 1:1 protein to biotin ratio)); experiment: BLI
Kd [1] [nM],Kd [2] [nM],Binder
36.8,–,IZUMO1 ectodomain (BLI analyte) (domain or fragment) CVICDPSVVLALKSLEKDYLPGHLDAKHHKAMMERVENAVKDFQELSLNEDAYMGVVDEATLQKGSWSLLKDLKRITDSDVKGDLFVKELFWMLHLQKETFATYVARFQKEAYCPNKCGVMLQTLIWCKNCKKEVHACRKSYDCGERNVEVPQMEDMILDCELNWHQASEGLTDYSFYRVWGNNTETLVSKGKEATLTKPMVGPEDAGSYRCELGSVNSSPATIINFHVTVLPKMIKEEKPSPNIVTPGEATTESSISLQPLQPEKMLASR
–,14.2,JUNO ectodomain (BLI analyte; target protein of the pull-down) (domain or fragment) GDELLNICMNAKHHKRVPSPEDKLYEECIPWKDNACCTLTTSWEAHLDVSPLYNFSLFHCGLLMPGCRKHFIQAICFYECSPNLGPWIQPVGSLGWEVAPSGQGERVVNVPLCQEDCEEWWEDCRMSYTCKSNWRGGWDWSQGKNRCPKGAQCLPFSHYFPTPADLCEKTWSNSFKASPERRNSGRCLQKWFEPAQGNPNVAVARLFAS
